Like-named read-outs stand apart in the source and are kept apart here.
Legend:
[1] = target: aryl hydrocarbon receptor nuclear translocator PAS-B E362R; experiment: ITC
[2] = target: aryl hydrocarbon receptor nuclear translocator PAS-B E362R, conjugated with Alexa-Fluor 488; experiment: MST
[3] = target: aryl hydrocarbon receptor nuclear translocator PAS-B E362R, conjugated with Alexa-Fluor 488; experiment: MST; remark: listed apart in the source
[4] = target: aryl hydrocarbon receptor nuclear translocator PAS-B E362R, conjugated with Alexa-Fluor 488; experiment: MST; remark: listed apart in the source

Kd [1]: 560 nM
dH [1]: 4.4 kcal/mol
Kd [2]: 820 nM
Kd [3]: 170 nM
Kd [4]: 250 nM
Substance: HIF-2α PAS-B R247E (domain or fragment)
